According to paper PMC10778422, “PI3Kδ Inhibition Potentiates Glucocorticoids in B-lymphoblastic Leukemia by Decreasing Receptor Phosphorylation and Enhancing Gene Regulation”:

Biological target: GR-AF1-DBD unmodified (Homo sapiens, UniProt P04150 27-506)
Test: EMSA; reference; Kd plotted in figure only; 5 mM Mg2+; EMSA: 20 mM Tris-HCl pH 8.0, 150 mM KCl, 10% glycerol, 5 mM MgCl2, 1 mM DTT, 1 mM EDTA, 200 ng/uL BSA, 40 ng/uL salmon sperm DNA; dsDNA diluted to 10 nM in this buffer; Hill fit; temperature not given
Conditions: protein: recombinant; tags: His6 (pET28a); chain copies: 2; label: Cy5; blunt

GR-AF1-DBD unmodified, sequence (P04150 27-506): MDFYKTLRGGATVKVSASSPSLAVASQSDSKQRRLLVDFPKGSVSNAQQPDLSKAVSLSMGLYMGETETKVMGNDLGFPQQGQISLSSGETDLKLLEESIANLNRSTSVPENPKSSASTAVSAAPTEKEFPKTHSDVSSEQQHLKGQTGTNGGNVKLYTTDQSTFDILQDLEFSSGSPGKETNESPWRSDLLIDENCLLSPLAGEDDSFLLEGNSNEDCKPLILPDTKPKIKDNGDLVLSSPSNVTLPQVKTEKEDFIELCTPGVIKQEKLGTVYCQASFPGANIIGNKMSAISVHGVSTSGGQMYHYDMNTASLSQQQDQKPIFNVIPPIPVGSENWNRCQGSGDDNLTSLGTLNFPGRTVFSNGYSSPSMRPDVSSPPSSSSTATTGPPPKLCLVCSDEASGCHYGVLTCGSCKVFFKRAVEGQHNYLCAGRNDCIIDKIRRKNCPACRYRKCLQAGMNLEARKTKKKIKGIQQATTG

B1: consensus GR site (dsDNA)
DNA 1: GTACGGAACATCGTGTACTGTAC
DNA 2: GTACAGTACACGATGTTCCGTAC
- binding result: binds
